This is an account of results in publication doi:10.1101/2023.08.25.554718 (2023).

Like-named read-outs stand apart in the source and are kept apart here.

For experiment [1], the target named is T1, CX3CR1 nucleosome (human core histones, wild type) (human, UniProt P04908 1-124; O60814 1-124; P68431 1-136; P62805 1-103).
For experiment [2], the target named is T1, CX3CR1 nucleosome (human core histones, …). Briefly: with scFv.

The term Kd denotes the free concentration of one partner at which half of the binding sites on the other are occupied at equilibrium, for simple one-to-one binding. A lower Kd goes with a tighter complex.

B1: MBP-DBDC/EBPα (protein)
chain: MHLQPGHPTPPPTPVPSPHAAPALGAAGLPGPGSALKGLAGAHPDLRTGGGGGGSGAGAGKAKKSVDKNSNEYRVRRERNNIAVRKSRDKAKQRNVETQQKVLELTSDNDRLRKRVEQLSRELDTLRGIFRQLPESSLVKAMGNCA
Take B1: the equilibrium dissociation constant (Kd) in experiment [1] is 1.7 µM; in experiment [2], 1.5 µM.
